# Article PMC9274004, “Deciphering the Molecular Interaction Between the Adhesion G Protein-Coupled Receptor ADGRV1 and its PDZ-Containing Regulator PDZD7” (Frontiers in Molecular Biosciences, 2022)
# T1: PDZD7 first PDZ domain (PDZ1 construct; A81 to G167) (mouse, Natural entry residue kept at 81: the paper prints A81 but the entry has Ser, so the Ala is probably a cloning junction or a misprint. The GST tag was removed by TEV; a short N-terminal scar is possib)
# T1 chain: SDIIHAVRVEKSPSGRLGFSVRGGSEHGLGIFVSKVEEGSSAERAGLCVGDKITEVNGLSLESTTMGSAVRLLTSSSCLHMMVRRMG
# T2: PDZD7 second PDZ domain (PDZ2 construct; G206 to G292) (mouse, UniProt E9Q9W7-1 206-292)
# T2 construct: PDZD7, mouse, long isoform (Uniprot E9Q9W7-1), residues 206-292; source: E. coli BL21 DE3, purified (GSTrap, on-column TEV cleavage, SEC); not shown: GST, N-terminal, cleaved
# T2 sequence (looked up): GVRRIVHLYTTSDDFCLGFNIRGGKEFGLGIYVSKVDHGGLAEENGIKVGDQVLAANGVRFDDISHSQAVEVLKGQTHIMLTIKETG
# T3: PDZD7 second PDZ domain with its C-terminal extension (PDZ2ext construct; G206 to G313) (mouse, UniProt E9Q9W7-1 206-313)
# T3 construct: also called PDZ2ext WT; source: E. coli BL21 DE3, purified (GSTrap, on-column TEV cleavage, SEC); not shown: GST, N-terminal, cleaved
# T3 sequence (looked up): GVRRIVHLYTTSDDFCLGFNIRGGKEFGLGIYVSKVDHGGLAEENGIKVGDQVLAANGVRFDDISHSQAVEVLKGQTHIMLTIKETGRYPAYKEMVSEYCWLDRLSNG
# T4: PDZD7 first PDZ domain with its C-terminal extension (PDZ1ext construct; A81 to E192) (mouse)
# T4 sequence (E9Q9W7 81-192, looked up): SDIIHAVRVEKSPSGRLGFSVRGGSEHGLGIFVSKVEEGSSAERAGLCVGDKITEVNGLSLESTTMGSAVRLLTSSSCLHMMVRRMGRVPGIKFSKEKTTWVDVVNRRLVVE
# T5: PDZD7 PDZ tandem (P1P2 construct; A81 to G313) (mouse)
# T5 sequence (E9Q9W7 81-313, looked up): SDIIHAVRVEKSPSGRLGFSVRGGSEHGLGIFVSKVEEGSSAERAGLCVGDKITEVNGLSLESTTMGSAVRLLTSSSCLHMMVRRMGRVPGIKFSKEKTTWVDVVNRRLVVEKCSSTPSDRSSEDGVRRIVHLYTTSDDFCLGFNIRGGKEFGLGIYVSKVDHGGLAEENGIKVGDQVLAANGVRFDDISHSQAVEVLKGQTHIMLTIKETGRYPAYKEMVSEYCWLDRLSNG
# T6: PDZD7 PDZ1ext (81-192) (Mus musculus, UniProt E9Q9W7)
# T6 construct: PDZ1 (81-167), PDZ1ext (81-192); GST (followed by TEV site) (N, cleaved yes); made in house; host or cells: E. coli BL21 DE3
# T6 sequence (E9Q9W7 81-192): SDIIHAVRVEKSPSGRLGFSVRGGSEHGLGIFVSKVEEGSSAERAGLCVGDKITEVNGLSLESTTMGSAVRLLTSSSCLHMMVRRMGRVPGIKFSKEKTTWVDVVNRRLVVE
# T7: PDZD7 N-PDZ1ext (Mus musculus, UniProt E9Q9W7)
# T7 construct: including the N-terminus of the protein (N-PDZ1ext construct; M1-E192); GST (followed by TEV site) (N, cleaved yes); made in house; host or cells: E. coli BL21 DE3
# T7 sequence (E9Q9W7 1-192): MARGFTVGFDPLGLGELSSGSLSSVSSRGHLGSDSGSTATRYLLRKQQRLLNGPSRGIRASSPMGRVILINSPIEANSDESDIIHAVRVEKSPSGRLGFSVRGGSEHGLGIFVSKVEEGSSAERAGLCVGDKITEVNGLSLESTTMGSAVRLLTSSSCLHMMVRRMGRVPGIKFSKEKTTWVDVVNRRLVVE
# B1: ADGRV1pbm peptide (last 13 residues of ADGRV1, with its PDZ binding motif) (peptide)
# peptide: VELRRIPIADTHL
# notes: ADGRV1, last 13 residues, free C-terminal carboxylate as printed (-COOH); The other ADGRV1 constructs are murine
# B2: ADGRV1 whole cytoplasmic domain (domain or fragment)
# chain: HNQTCCPMKASYTVEMNGHPGPSTAFFTPGSGIPPAGEINKSTQNLINAMEEVPSDWERSSFQQTSQASPDLKTSPQNGASFPSSGGYGPGSLIADEESQEFDDLIFALKTGAGLSVSDNESGQGSQEGGTLTDSQIVELRRIPIADTHL
# B3: ADGRV1 whole cytoplasmic domain: whole ADGRV1 cytoplasmic domain of 152 residues, murine long isoform (CCDS36737; 6149-6298) (protein)
# chain: HNQTCCPMKASYTVEMNGHPGPSTAFFTPGSGIPPAGEINKSTQNLINAMEEVPSDWERSSFQQTSQASPDLKTSPQNGASFPSSGGYGPGSLIADEESQEFDDLIFALKTGAGLSVSDNESGQGSQEGGTLTDSQIVELRRIPIADTHL
# modifications: left off: Histidine tag, N-terminal, cleaved
# Tests used:
# harmonin supramodule = settings: for protocadherin-15; ref Michel et al., 2020; cited from earlier work
# From the text: These folded extensions modulate the affinity of associated PDZ domains for their partners and promote the formation of domain assembly. In harmonin, this extension folds as a hairpin followed by a short α-helix mediating the formation of a heterotopic supramodule between the first PDZ and the upstream Harmonin Homology Domain (HHD) and forming direct contacts with residues upstream of the partner’s PBM ([Yan et al., 2010]) (PDB e ...
# [1] = molecular target: T1, PDZD7 first PDZ domain (PDZ1 construct; …); experiment: NMR titration; 1H-15N HSQC chemical shift perturbations of the labelled PDZ construct on addition of ADGRV1pbm peptide; Tris HCl pH 7.5 (50 mM), 25°C; apparent Kd, mean over at least 10 shifting peaks; settings: both partners purified
# [2] = molecular target: T2, PDZD7 second PDZ domain (PDZ2 …); experiment: MST; label-free; PDZ2 at 140 μM in MES pH6 (50 mM) mixed 1:1 with a serial dilution of ADGRV1pbm peptide; apparent Kd; settings: both partners purified
# [3] = molecular target: T3, PDZD7 second PDZ domain with its …; experiment: other fluorescence titration; tryptophan fluorescence (excitation 295 nm) of PDZ2ext at 5 µM in Tris HCl pH 7.5 (50 mM) on progressive addition of ADGRV1pbm peptide; apparent Kd; settings: both partners purified
# [4] = molecular target: PDZD7 PDZ1ext G103R (mouse); experiment: NMR titration; 1H-15N HSQC chemical shift perturbations of the labelled PDZ construct on addition of ADGRV1pbm peptide; Tris HCl pH 7.5 (50 mM), 25°C; apparent Kd, mean over at least 10 shifting peaks
# [5] = molecular target: T4, PDZD7 first PDZ domain with its C-terminal extension (PDZ1ext construct; A81 to E192) (mouse); experiment: as above
# [6] = molecular target: T5, PDZD7 PDZ tandem (P1P2 construct; A81 to G313) (mouse); experiment: other fluorescence titration; tryptophan fluorescence (excitation 295 nm) of P1P2 at 2 µM in Phosphate Buffer pH 6.6 (50 mM) on progressive addition of ADGRV1pbm peptide or the cytoplasmic domain; apparent Kd
# [7] = molecular target: PDZD7 PDZ tandem P1P2 G103R (mouse); experiment: as above
# [8] = molecular target: PDZD7 N-terminus with PDZ1 and its extension (N-PDZ1ext construct; M1-E192) (mouse) (UniProt E9Q9W7); experiment: NMR titration; chemical shift perturbations of PDZ1ext or N-PDZ1ext with the whole ADGRV1 cytoplasmic domain or the PBM peptide; apparent Kd, mean over at least ten shifting peaks; buffer not given for these titrations
# [9] = molecular target: T4, PDZD7 first PDZ domain with its C-terminal extension (PDZ1ext construct; A81 to E192) (mouse); experiment: as above
# PDZD7 PDZ1ext (81-192) = molecular target: T6, PDZD7 PDZ1ext (81-192); experiment: NMR titration of PDZ1ext with ADGRV1 ligands; type: binding, murine; settings: NMR titration, 25°C; apparent Kd, SD over at least ten shifting peaks; ligand whole cytoplasmic domain; read-out: Kd (Cyto)
# Procedure: All experiments were recorded at 25°C on a Bruker 800 MHz spectrometer equipped with a triple resonance ^1H{^13C/^15N} cryoprobe. The ^1H, ^15 N and ^13C backbone resonances assignment of PDZ1ext was carried out using 3D HNCA, HNCACB, HNCO, HNCOCA experiments (Tris HCl buffer adjusted to pH 6). The 2D ^1H-^15N HSQC spectra used to compare PDZ1, PDZ1ext, PDZ2 and PDZ2ext were recorded in Tris HCl pH 7.5 (50 mM). The 2D ^1H-^15N HSQC spectra used to compare PDZ1ext, PDZ2ext and P1P2 were recorded in Phosphate Buffer pH 6.5 (50 mM). Titration experiments of PDZ1 (WT), PDZ1ext (WT) and PDZ1ext (G103R) against ADGRV1pbm peptide were performed in Tris HCl pH 7.5 (50 mM). Averaged Chemical Shifts Perturbations (CSP) were calculated as: Δδavg = ((Δδ(^1H))^2+(Δδ(^15N)*0.159)^2)^½. […]
# We monitored the interaction between PDZD7 constructs and a peptide (ADGRV1pbm) corresponding to the last 13 residues of ADGRV1, encompassing its PBM (sequence VELRRIPIADTHL-COOH; PBM underlined). We measured apparent Kd values of our constructs towards ADGRV1pbm using several biophysical methods (NMR, fluorescence, MicroScale Thermophoresis (MST)) (Table 1; Supplementary Figure S3–S5). […]
# PDZD7 N-PDZ1ext = molecular target: T7, PDZD7 N-PDZ1ext; experiment: NMR titration of N-PDZ1ext with ADGRV1 ligands; type: binding, murine
# Procedure: All experiments were recorded at 25°C on a Bruker 800 MHz spectrometer equipped with a triple resonance ^1H{^13C/^15N} cryoprobe. The ^1H, ^15 N and ^13C backbone resonances assignment of PDZ1ext was carried out using 3D HNCA, HNCACB, HNCO, HNCOCA experiments (Tris HCl buffer adjusted to pH 6). The 2D ^1H-^15N HSQC spectra used to compare PDZ1, PDZ1ext, PDZ2 and PDZ2ext were recorded in Tris HCl pH 7.5 (50 mM). The 2D ^1H-^15N HSQC spectra used to compare PDZ1ext, PDZ2ext and P1P2 were recorded in Phosphate Buffer pH 6.5 (50 mM). Titration experiments of PDZ1 (WT), PDZ1ext (WT) and PDZ1ext (G103R) against ADGRV1pbm peptide were performed in Tris HCl pH 7.5 (50 mM). Averaged Chemical Shifts Perturbations (CSP) were calculated as: Δδavg = ((Δδ(^1H))^2+(Δδ(^15N)*0.159)^2)^½. For the determination of dissociation constants (Kd) of each peptide/PDZ interaction, averaged CSP δavg was plotted as a function of the molar ratio (peptide/PDZ) for several peaks and fitted using nonlinear regression and assuming a simple complex formation model.
# The P1P2 tandem of PDZD7 is preceded by 80 residues with no predicted secondary or tertiary structure, but which could contribute to the interaction with ADGRV1. […] We first aimed at identifying potential secondary structures in both PDZD7 N-terminal region and ADGRV1 cytoplasmic domain. To this end, we produced both an extended PDZ1ext construct, including the N-terminus of the protein (N-PDZ1ext construct; M1-E192) and the whole ADGRV1 cytoplasmic domain of 152 residues.
# On the overlay of PDZ1ext and N-PDZ1ext HSQC spectra, there is no significant chemical shift changes on PDZ1ext due to the presence of the N-terminal region (CSPs <0.04 ppm). […] We used the entire cytoplasmic domain of ADGRV1 as partner of PDZD7 in NMR and fluorescence titrations experiments. […] Finally, we measured Kd values in the few micromolar range between the tandem P1P2 and the whole cytoplasmic domain and the last 13 residues of ADGRV1 by fluorescence experiments.
molecule,measurement,setting,value
protocadherin-15: partner of harmonin supramodule,increased affinity of harmonin supramodule vs isolated PDZ,harmonin supramodule,~10 fold
B1,Kd,[1],1310 µM
same,Kd,[2],313 µM
same,Kd,[3],3.1 µM
same,Kd,[4],1190 µM
same,Kd,[5],47 µM
same,Kd,[6],1.6 µM
same,Kd,[7],1.9 µM
B2,Kd,[6],8.1 µM
same,Kd,[8],241 µM
same,Kd,[9],41 µM
B3,Kd,PDZD7 PDZ1ext (81-192),41 ± 14 µM
same,Kd,"PDZD7 N-PDZ1ext; NMR titration, 25°C, SD over at least ten shifting peaks, ligand whole cytoplasmic domain, read-out: Kd (Cyto)",241 ± 115 µM
same,decrease in affinity,"PDZD7 N-PDZ1ext; due to the long unfolded N-terminus region, N-PDZ1ext vs PDZ1ext",6 fold
